According to US20240174744A1 (SCIRHOM, published 2024):
Positions count from the first letter of the chain named.

T1: hiR2-FL-I566E-T7 (human iRhom2 full length I566E, 3 x T7 tag) (human, UniProt Q6PJF5 1-856)
T1 sequence: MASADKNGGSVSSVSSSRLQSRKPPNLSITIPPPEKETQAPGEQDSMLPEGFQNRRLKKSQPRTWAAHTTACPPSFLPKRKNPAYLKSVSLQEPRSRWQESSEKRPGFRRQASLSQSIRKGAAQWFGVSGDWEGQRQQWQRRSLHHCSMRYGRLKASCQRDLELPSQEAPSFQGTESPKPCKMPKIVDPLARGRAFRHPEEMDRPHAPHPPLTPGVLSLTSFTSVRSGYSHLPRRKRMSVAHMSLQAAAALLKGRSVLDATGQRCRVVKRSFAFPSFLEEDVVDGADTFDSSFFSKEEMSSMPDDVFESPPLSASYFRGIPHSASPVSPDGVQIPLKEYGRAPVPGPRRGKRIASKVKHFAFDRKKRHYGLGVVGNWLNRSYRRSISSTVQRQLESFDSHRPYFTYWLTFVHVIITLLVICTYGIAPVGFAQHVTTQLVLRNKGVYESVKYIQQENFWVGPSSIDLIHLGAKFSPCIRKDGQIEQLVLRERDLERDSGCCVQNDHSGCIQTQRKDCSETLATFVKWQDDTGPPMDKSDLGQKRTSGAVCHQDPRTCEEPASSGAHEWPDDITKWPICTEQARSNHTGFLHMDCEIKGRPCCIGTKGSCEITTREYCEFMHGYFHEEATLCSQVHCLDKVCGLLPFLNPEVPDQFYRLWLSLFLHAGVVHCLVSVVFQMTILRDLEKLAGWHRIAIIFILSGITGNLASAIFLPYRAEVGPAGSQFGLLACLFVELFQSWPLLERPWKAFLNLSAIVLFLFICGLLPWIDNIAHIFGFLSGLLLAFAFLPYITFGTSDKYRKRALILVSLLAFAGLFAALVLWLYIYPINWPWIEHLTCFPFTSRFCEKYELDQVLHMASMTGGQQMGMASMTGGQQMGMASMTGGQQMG

B1: antibody 34 (antibody, V domains shown)
VH: QVTLKESGPGILQPSQTLSLTCSFSGFSLSTFSLGVGWIRQSSGKGLEWLAHIWWDDEKYYNPALKSRLTISKDTSKNQVFLKIANVDAADTATYYCARAYYSKSYYALDYWGQGTSVTVSS
VL: DIQMTQSPSSLSASLGERVSLTCRASQEISGYLSWLQQKPDGTIKRLIYAASTLDSGVPKRFSGSRSGSDYSLAISSLESEDFADYYCLQYANFPFTFGSGTKLEIK
notes: Mouse IgG, kappa light chain; also called clone #34; m34
B2: antibody 43 (antibody, V domains shown)
VH: QVALKESGPGILQPSQTLSLTCSFSGFSLSTFGMGVGWIRQSSGKGLEWLANIWWDDDKYYNPALKSRLTISKDASKNQAFLKIANVDTADTATYYCARIGNYGSNYWYFDVWGTGTTVTVSS
VL: QIVLTQSPAIMSASPGERVTMTCSANSRISYMYWYQQKPGSSPRLLIYDTSNLASGVPVRFSGSGSGTSYSLTISRMEAEDAATYNCQQWSSYPLTFGAGTKLELK
notes: Mouse IgG, kappa light chain; also called clone #43
B3: antibody 44 (antibody, V domains shown)
VH: B2 VH with A3T, S42P, G44E, N52H, A75T, A80I, A85T, D91E, A98S
VL: QIVLTQSPAVMSASPGEKVTMTCTASSSVYYMYWYQQTPGSSPRLLIYDTSNLASGVPVRFSGSGSGTSYSLTISRMEAEDAATYYCQQWNTYPLTFGAGTKLELK
notes: Mouse IgG, kappa light chain; also called clone #44; m44
B4: antibody 42 (antibody, V domains shown)
VH: B2 VH with A3T, F24L, M34R, S42P, N52H, D58E, A75T, A80V, K83R, G101Q
VL: B2 VL with Q1L, R18K, S24G, N26T, Y33F, L45V, M77V, A82V, N86Y, S91N
notes: Mouse IgG, kappa light chain; also called clone #42; m42
B5: antibody 22 (antibody, V domains shown)
VH: B2 VH with A3T, S42P, N52H, D58E, P63S, D74A, A75T, A80V, G101S, D111N
VL: B3 VL with I2V, V10L, T24S, S26G, Y30S, T38K, L45V, V59A, S62T, T92S
notes: Mouse IgG, kappa light chain; also called clone #22; m22

biological target: T1, hiR2-FL-I566E-T7 (human iRhom2 full …); test: FACS on cells of the row I566E, vs human iR2 wild type = 100%
Description: In brief, immortalized MEF-DKO hiR2-FL-G563D-T7, MEF-DKO hiR2-FL-A564P-T7, MEF-DKO hiR2-FL-I566E-T7, MEF-DKO hiR2-FL-D569E-T7, MEF-DKO hiR2-FL-E579K-T7, MEF-DKO hiR2-FL-Q580N-T7, MEF-DKO hiR2-FL-A581S-T7, MEF-DKO hiR2-FL-R582A-T7, MEF-DKO hiR2-FL-S583G-T7, MEF-DKO hiR2-FL-G587N-T7, MEF-DKO hiR2-FL-F588H-T7, MEF-DKO hiR2-FL-L589P-T7, MEF-DKO hiR2-FL-E594V-T7, MEF-DKO hiR2-FL-K596T-T7, MEF-DKO hiR2-FL-S607R-T7, MEF-DKO hiR2-FL-T612S-T7, MEF-DKO hiR2-FL-E617D-T7, MEF-DKO hiR2-FL-H620R-T7, MEF-DKO hiR2-FL-L636M-T7, MEF-DKO hiR2-FL-K638D-T7, MEF-DKO hiR2-FL-I771F-T7, MEF-DKO hiR2-FL-I825V-T7, MEF-DKO hiR2-FL-I828V-T7, MEF-DKO hiR2-FL-N829R-T7, MEF-DKO hiR2-FL-W830C-T7, MEF-DKO hiR2-FL-P831E-T7, MEF-DKO hiR2-FL-1833C-T7, MEF-DKO hiR2-FL-H835F-T7, MEF-DKO hiR2-FL-F839I-T7, MEF-DKO hiR2-FL-S843D-T7, MEF-DKO hiR2-FL-Q853A-T7, MEF-DKO hiR2-FL-V854Q-T7 and MEF-DKO hiR2-FL-R844K-T7 cells were harvested with 10 mM EDTA in PBS, washed and resuspended in FACS buffer (PBS, 3% FBS, 0.05% sodium azide), and seeded in Nunc U-bottom 96-well plates (Thermo Fisher Scientific, USA) at approximately 1×10⁵ cells per well. To pellet cells and remove supernatants, the plates were centrifuged at 1,500 rpm and 4° C. for 3 minutes. For primary staining, cells were resuspended in 100 μl per well of either FACS buffer alone (controls) or the purified antibodies 3, 5, 16, 22, 34, 42, 43, 44, 48, and 50 of the present disclosure at 3 μg/ml in FACS buffer and incubated on ice for 1 hour. Afterwards, plates were centrifuged at 1,500 rpm and 4° C. for 3 minutes and washed twice with 200 μl per well of FACS buffer. For secondary staining, cells were spun down and resuspended in 100 μl per well of PE-conjugated goat anti-mouse IgG F(ab′)2 detection fragment (Dianova, Germany) diluted 1:100 in FACS buffer. Protected from light, the cell suspensions were incubated on ice for 1 hour. Plates were then centrifuged at 1,500 rpm and 4° C. for 3 minutes and washed three times with 200 μl per well of FACS buffer. Finally, cells were resuspended in 150 μl per well of FACS buffer and analyzed using a BD Accuri™ C6 Plus flow cytometer (Becton Dickinson, Germany).

Row | Binder | grade of loss of binding vs wild type
1 | B1 | 2 grade (2 => 60% loss of binding vs wild type)
2 | B2 | 2 grade (2 => 60% loss of binding vs wild type)
3 | B3 | 2 grade (2 => 60% loss of binding vs wild type)
4 | B4 | 2 grade (2 => 60% loss of binding vs wild type)
5 | B5 | 2 grade (2 => 60% loss of binding vs wild type)
